Test results: PMC3580387

Target: mCherry-Actin (UniProt P60709)
Experiment: FRET or BRET

| Substance | mean E% (FRET efficiency), Case 1 ROIs | mean E% (FRET efficiency), Case 2 ROIs | mean E% (FRET efficiency), Case 4 ROIs | mean E% (FRET efficiency), Case 3 ROIs |
| --- | --- | --- | --- | --- |
| TFP-N-WASP (Teal fluorescent protein fused to human N-WASP) (from UniProt O00401 1-505) (natural protein) | 20.3% | 27.9% | 25.2% | – |
| Venus-IQGAP1 (Venus fused to human IQGAP1) (from UniProt P46940 1-1657) (natural protein) | 29.6% | 25.4% | – | 39.3% |
